Here are results for eight molecules from publication doi:10.1101/2023.08.25.554918 (bioRxiv, 2023).

Common to all, as to assay: SEC
A general note: SEC sorts molecules by how far they enter the pores of the column.

For data set [1], the target named is Chimera 4 (Ton1-Pfu2-Ton3) (Thermococcus onnurineus | Pyrococcus furiosus).
Data set [2] addresses Chimera 3 (Ton1-Ton2-Pfu3) (Thermococcus onnurineus | Pyrococcus furiosus).
Data set [3] concerns the target Chimera 5 (Pfu1-Ton2-Ton3) (Pyrococcus furiosus | Thermococcus onnurineus).
Data set [4] deals with Domain 1 of PfuAmyGT (Pfu1) (Pyrococcus furiosus).
The target of data set [5] is Chimera 1 (Pfu1-Pfu2-Ton3) (Pyrococcus furiosus | Thermococcus onnurineus).
Data set [6] has as its target Chimera 2 (Pfu1-Ton2-Pfu3) (Pyrococcus furiosus | Thermococcus onnurineus).
Data set [7] concerns the target Chimera 6 (Ton1-Pfu2-Pfu3) (Thermococcus onnurineus | Pyrococcus furiosus).
The data set “SEC” deals with the molecule itself.

As usually defined, the stoichiometry N is a count of units in the complex or per binding partner.

For the molecule Chimera 4 (Ton1-Pfu2-Ton3) (enzyme), in data set [1], the stoichiometry N was 2.
In data set [2], Chimera 3 (Ton1-Ton2-Pfu3) (enzyme) came in with a stoichiometry N of 2.
In turn, Chimera 5 (Pfu1-Ton2-Ton3) (enzyme) showed a stoichiometry N in data set [3] of 2.
On to “Domain 1 of PfuAmyGT (Pfu1) (domain or fragment)”, for which, in data set [4], the stoichiometry N was 4.
In the case of Chimera 1 (Pfu1-Pfu2-Ton3) (enzyme), the stoichiometry N in data set [5] was determined as 2.
With Chimera 2 (Pfu1-Ton2-Pfu3) (enzyme), in data set [6], the stoichiometry N amounted to 2.
Chimera 6 (Ton1-Pfu2-Pfu3) (enzyme) displayed a stoichiometry N in data set [7] of 2.

B1: PfuAmyGT (Pfu1-Pfu2-Pfu3), GH57 4-α-glucanotransferase from Pyrococcus furiosus (enzyme)
chain: MGDKINFIFGIHNHQPLGNFGWVFEEAYEKCYWPFLETLEEYPNMKVAIHTSGPLIEWLQDNRPEYIDLLRSLVKRGQVEIVVAGFYEPVLASIPKEDRIEQIRLMKEWAKSIGFDARGVWLTERVWQPELVKTLKESGIDYVIVDDYHFMSAGLSKEELYWPYYTEDGGEVIAVFPIDEKLRYLIPFRPVDKVLEYLHSLIDGDESKVAVFHDDGEKFGIWPGTYEWVYEKGWLREFFDRISSDEKINLMLYTEYLEKYKPRGLVYLPIASYFEMSEWSLPAKQARLFVEFVNELKVKGIFEKYRVFVRGGIWKNFFYKYPESNYMHKRMLMVSKLVRNNPEARKYLLRAQCNDAYWHGLFGGVYLPHLRRAIWNNLIKANSYVSLGKVIRDIDYDGFEEVLIENDNFYAVFKPSYGGSLVEFSSKNRLVNYVDVLARRWEHYHGYVESQFDGVASIHELEKKIPDEIRKEVAYDKYRRFMLQDHVVPLGTTLEDFMFSRQQEIGEFPRVPYSYELLDGGIRLKREHLGIEVEKTVKLVNDGFEVEYIVNNKTGNPVLFAVELNVAVQSIMESPGVLRGKEIVVDDKYAVGKFALKFEDEMEVWKYPVKTLSQSESGWDLIQQGVSYIVPIRLEDKIRFKLKFEEASG
Regarding B1, the “stoichiometry N” value in “SEC” was 2.
